Experimental data as given in patent publication US20250057976A1.

Tests used:
[1] = molecular target: IL31RA (mouse) (UniProt Q8K5B1); test: cell-based or functional assay
[2] = molecular target: TrkA (mouse) (UniProt Q3UFB7); test: cell-based or functional assay
UniProt Q3UFB7, sequence (Q3UFB7 34-799): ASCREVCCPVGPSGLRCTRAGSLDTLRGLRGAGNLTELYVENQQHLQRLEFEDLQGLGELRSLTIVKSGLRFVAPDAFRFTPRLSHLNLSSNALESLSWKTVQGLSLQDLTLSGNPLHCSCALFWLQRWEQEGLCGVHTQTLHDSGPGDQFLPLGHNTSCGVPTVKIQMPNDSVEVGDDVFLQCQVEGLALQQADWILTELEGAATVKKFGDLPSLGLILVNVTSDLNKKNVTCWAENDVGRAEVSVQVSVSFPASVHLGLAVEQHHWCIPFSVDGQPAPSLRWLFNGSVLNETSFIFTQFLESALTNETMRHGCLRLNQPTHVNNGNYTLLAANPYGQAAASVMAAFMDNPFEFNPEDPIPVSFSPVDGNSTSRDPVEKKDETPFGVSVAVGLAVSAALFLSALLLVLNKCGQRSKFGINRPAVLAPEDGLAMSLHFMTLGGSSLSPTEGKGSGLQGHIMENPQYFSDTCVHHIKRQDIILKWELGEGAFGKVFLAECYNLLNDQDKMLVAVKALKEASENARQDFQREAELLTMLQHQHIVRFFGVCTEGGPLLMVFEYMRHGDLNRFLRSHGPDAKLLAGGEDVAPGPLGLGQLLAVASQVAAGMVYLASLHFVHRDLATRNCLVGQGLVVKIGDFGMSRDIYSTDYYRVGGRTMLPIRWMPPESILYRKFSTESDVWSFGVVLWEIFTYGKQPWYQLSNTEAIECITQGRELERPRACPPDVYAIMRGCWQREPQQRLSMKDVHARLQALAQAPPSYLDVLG

UniProt Q8K5B1, sequence (Q8K5B1 19-716): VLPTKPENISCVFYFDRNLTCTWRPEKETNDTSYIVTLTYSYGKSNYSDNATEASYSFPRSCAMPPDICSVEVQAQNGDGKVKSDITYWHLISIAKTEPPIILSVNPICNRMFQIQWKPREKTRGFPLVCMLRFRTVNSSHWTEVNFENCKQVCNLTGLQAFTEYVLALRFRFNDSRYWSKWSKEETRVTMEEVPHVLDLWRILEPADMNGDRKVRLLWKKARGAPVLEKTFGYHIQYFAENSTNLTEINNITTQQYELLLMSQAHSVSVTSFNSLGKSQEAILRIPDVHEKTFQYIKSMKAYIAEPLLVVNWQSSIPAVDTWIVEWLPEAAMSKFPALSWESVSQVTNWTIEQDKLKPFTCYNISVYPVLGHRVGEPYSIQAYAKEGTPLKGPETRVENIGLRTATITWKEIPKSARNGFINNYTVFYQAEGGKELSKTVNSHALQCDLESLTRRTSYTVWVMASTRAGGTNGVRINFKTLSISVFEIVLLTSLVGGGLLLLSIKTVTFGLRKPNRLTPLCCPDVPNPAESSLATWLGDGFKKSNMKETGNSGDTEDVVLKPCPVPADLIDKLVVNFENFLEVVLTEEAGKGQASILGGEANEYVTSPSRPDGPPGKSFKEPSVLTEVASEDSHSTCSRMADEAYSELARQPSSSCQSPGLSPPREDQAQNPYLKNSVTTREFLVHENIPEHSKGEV

Row | Substance | overlap of virally infected cells with K14 positive keratinocytes, skin of wildtype mice, subcutaneous 3E+10 VG [1] [percent] | TrkA positive DRG cells infected after retro-orbital injection of 3E+10 VG [2] [%] | infected DRG cells that are TrkA positive after retro-orbital injection of 3E+10 VG [2] [%] | overlap of virally infected (tdTomato) sensory neurons with TrkA antibody staining, trigeminal ganglia, 3 weeks after IV injection [2] [%]
1 | IL31^K134A-SNAP::AAV2-ΔHSPG (from UniProt P03135 1-735) | 100 |  |  | 
2 | NGF^R121W-SNAP::AAV2-ΔHSPG (from UniProt P03135 1-735) |  | 80 | 83 | > 80
